Test results as given in patent publication US20260242735A1 (UNIVERSIT T BASEL, published 2026).

Legend:
Experiment in all cases: alanine scan, flow cytometry, HEK293-T;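 note: antibody binding to each alanine-substituted CD33 mutant expressed transiently in HEK293-T, read as fluorescence minus background, mean of duplicates, relative to wild-type CD33 set as 100%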
human CD33 T173A = human CD33 T173A (human, UniProt P20138 18-364)
human CD33 S181A = human CD33 S181A (human, UniProt P20138 18-364)
human CD33 S181A, sequence (P20138 18-364 S181A limits assumed): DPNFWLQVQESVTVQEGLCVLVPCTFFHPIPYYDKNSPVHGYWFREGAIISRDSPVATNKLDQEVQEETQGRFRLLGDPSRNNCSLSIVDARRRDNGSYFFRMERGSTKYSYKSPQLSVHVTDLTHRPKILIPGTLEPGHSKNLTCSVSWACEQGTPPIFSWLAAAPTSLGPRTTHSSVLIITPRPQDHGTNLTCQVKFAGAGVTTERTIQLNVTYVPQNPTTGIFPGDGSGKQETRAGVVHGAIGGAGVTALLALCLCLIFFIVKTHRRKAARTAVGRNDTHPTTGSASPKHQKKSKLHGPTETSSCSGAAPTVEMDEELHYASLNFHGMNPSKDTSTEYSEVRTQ

human CD33 G207A = human CD33 G207A (human, UniProt P20138 18-364)
human CD33 G207A, sequence (P20138 18-364 G207A limits assumed): as the sequence (P20138 18-364 S181A limits assumed) above, with A164S, G190A counted along it

human CD33 F177A = human CD33 F177A (human, UniProt P20138 18-364)
human CD33 F177A, sequence (P20138 18-364 F177A limits assumed): as the sequence (P20138 18-364 S181A limits assumed) above, with F160A, A164S counted along it

human CD33 P301A = human CD33 P301A (human, UniProt P20138 18-364)
human CD33 P301A, sequence (P20138 18-364 P301A limits assumed): as the sequence (P20138 18-364 S181A limits assumed) above, with A164S, P284A counted along it

human CD33 G295A = human CD33 G295A (human, UniProt P20138 18-364)
human CD33 G295A, sequence (P20138 18-364 G295A limits assumed): as the sequence (P20138 18-364 S181A limits assumed) above, with A164S, G278A counted along it

human CD33 K309A = human CD33 K309A (human, UniProt P20138 18-364)
human CD33 K309A, sequence (P20138 18-364 K309A limits assumed): as the sequence (P20138 18-364 S181A limits assumed) above, with A164S, K292A counted along it

human CD33 R291A = human CD33 R291A (human, UniProt P20138 18-364)
human CD33 R291A, sequence (P20138 18-364 R291A limits assumed): as the sequence (P20138 18-364 S181A limits assumed) above, with A164S, R274A counted along it

human CD33 T173A, sequence (P20138 18-364 T173A limits assumed): as the sequence (P20138 18-364 S181A limits assumed) above, with T156A, A164S counted along it

Row | Binder | Mean % WT Binding (human CD33 T173A) [%] | Mean % WT Binding (human CD33 S181A) [%] | Mean % WT Binding (human CD33 G207A) [%] | Mean % WT Binding (human CD33 F177A) [%] | Mean % WT Binding (human CD33 P301A) [% WT binding] | Mean % WT Binding (human CD33 G295A) [% WT binding] | Mean % WT Binding (human CD33 K309A) [% WT binding] | Mean % WT Binding (human CD33 R291A) [% WT binding]
1 | Refmab #1 (antibody, V domains shown, In the alanine scan antibodies were used as IgG or Fab; also called hP67.6) VH: EVQLVQSGAEVKKPGSSVKVSCKASGYTITDSNIHWVRQAPGQSLEWIGYIYPYNGGTDYNQKFKNRATLTVDNPTNTAYMELSSLRSEDTAFYYCVNGNPWLAYWGQGTLVTVSS VL: DIQLTQSPSTLSASVGDRVTITCRASESLDNYGIRFLTWFQQKPGKAPKLLMYAASNQGSGVPSRFSGSGSGTEFTLTISSLQPDDFATYYCQQTKEVPWSFGQGTKVEVK | 106 | 85.5 | 94.1 | 68.4 | – | – | – | –
2 | Refmab #2 (antibody, V domains shown, In the alanine scan antibodies were used as IgG or Fab) VH: QVQLVQSGAEVKKPGSSVKVSCKASGGTFSDYAISWVRQAPGQGLEWMGRIIPILGVADYAQKFQGRVTITADKSTRTAYMELSSLRSEDTAVYYCARNWADAFDIWGQGTMVTVSS VL: DIQLTQSPSSLSASVGDRVTITCRASQGISSVLAWYQQKPGKAPKLLIYDASSLESGVPSRFSGSGSGTDFTLTISSLQPEDFATYYCQQFDSSITFGQGTKLEIK | 134 | 116 | 109 | 67.5 | – | – | – | –
3 | Refmab #3 (antibody, V domains shown, In the alanine scan antibodies were used as IgG or Fab) VH: QVQLVQSGAEVKKPGSSVKVSCKASGYTFTDYNMHWVRQAPGQGLEWIGYIYPYNGGTGYNQKFKSKATITADESTNTAYMELSSLRSEDTAVYYCARGRPAMDYWGQGTLVTVSS VL: DIQMTQSPSSLSASVGDRVTITCRASESVDNYGISFMNWFQQKPGKAPKLLIYAASNQGSGVPSRFSGSGSGTDFTLTISSLQPDDFATYYCQQSKEVPWTFGQGTKVEIK | 97 | 128 | 105 | 60.4 | – | – | – | –
4 | Refmab #4 (antibody, V domains shown, In the alanine scan antibodies were used as IgG or Fab) VH: QVQLVQSGAEVKKPGESVKVSCKASGYTFTNYGMNWVKQAPGQGLEWMGWINTYTGEPTYADKFQGRVTMTTDTSTSTAYMEIRNLGGDDTAVYYCARWSWSDGYYVYFDYWGQGTSVTVSS VL: DIVMTQSPDSLTVSLGERTTINCKSSQSVLDSSTNKNSLAWYQQKPGQPPKLLLSWASTRESGIPDRFSGSGSGTDFTLTIDSPQPEDSATYYCQQSAHFPITFGQGTRLEIK | 119 | 114 | 87.1 | 25.4 | – | – | – | –
5 | Refmab #1 (antibody, V domains shown, The alanine scan used IgG or Fab; also called hP67.6) VH: EVQLVQSGAEVKKPGSSVKVSCKASGYTITDSNIHWVRQAPGQSLEWIGYIYPYNGGTDYNQKFKNRATLTVDNPTNTAYMELSSLRSEDTAFYYCVNGNPWLAYWGQGTLVTVSS VL: DIQLTQSPSTLSASVGDRVTITCRASESLDNYGIRFLTWFQQKPGKAPKLLMYAASNQGSGVPSRFSGSGSGTEFTLTISSLQPDDFATYYCQQTKEVPWSFGQGTKVEVK | – | – | – | – | 101 | 92.7 | 92.7 | 97.8
6 | Refmab #2 (antibody, V domains shown, The alanine scan used IgG or Fab) VH: QVQLVQSGAEVKKPGSSVKVSCKASGGTFSDYAISWVRQAPGQGLEWMGRIIPILGVADYAQKFQGRVTITADKSTRTAYMELSSLRSEDTAVYYCARNWADAFDIWGQGTMVTVSS VL: DIQLTQSPSSLSASVGDRVTITCRASQGISSVLAWYQQKPGKAPKLLIYDASSLESGVPSRFSGSGSGTDFTLTISSLQPEDFATYYCQQFDSSITFGQGTKLEIK | – | – | – | – | 91.8 | 110 | 111 | 122
7 | Refmab #3 (antibody, V domains shown, The alanine scan used IgG or Fab) VH: QVQLVQSGAEVKKPGSSVKVSCKASGYTFTDYNMHWVRQAPGQGLEWIGYIYPYNGGTGYNQKFKSKATITADESTNTAYMELSSLRSEDTAVYYCARGRPAMDYWGQGTLVTVSS VL: DIQMTQSPSSLSASVGDRVTITCRASESVDNYGISFMNWFQQKPGKAPKLLIYAASNQGSGVPSRFSGSGSGTDFTLTISSLQPDDFATYYCQQSKEVPWTFGQGTKVEIK | – | – | – | – | 93.9 | 95.8 | 92 | 97.5
8 | Refmab #4 (antibody, V domains shown, The alanine scan used IgG or Fab) VH: QVQLVQSGAEVKKPGESVKVSCKASGYTFTNYGMNWVKQAPGQGLEWMGWINTYTGEPTYADKFQGRVTMTTDTSTSTAYMEIRNLGGDDTAVYYCARWSWSDGYYVYFDYWGQGTSVTVSS VL: DIVMTQSPDSLTVSLGERTTINCKSSQSVLDSSTNKNSLAWYQQKPGQPPKLLLSWASTRESGIPDRFSGSGSGTDFTLTIDSPQPEDSATYYCQQSAHFPITFGQGTRLEIK | – | – | – | – | 97.9 | 107 | 99.9 | 102
